From the supplement of paper PMC12042874
± gives the uncertainty stated by the source.

Assay: amyloid nucleation score (Sup35N fusion, yeast selection) (log enrichment); library NNK1; higher = more nucleation; inactive = no reads after selection
In short: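 Using DiMSum, nucleation scores were taken as the log enrichment of output over input reads, centred on the mode score of non-aggregating sequences. The input and output reads came from Illumina sequencing of plasmid inserts, with sequences under 100 input reads excluded. The yeast were psi-negative, expressed Sup35N fused to peptides of 20 random codons, were induced with 100 μM copper sulfate for 24 hours, and were grown 7 days at 30°C on medium lacking adenine and uracil.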

| Substance | amyloid nucleation score |
| --- | --- |
| IWVHHRSVTKSWLKMVAWNH | -0.514 ± 0.43 |
| FCNNAPRQEWPILN | -1.31 ± 0.49 |
| PLVFCIITGPCV | -0.468 ± 0.55 |
| LVGRYSWWQRRRHGTCMGTV | 0.629 ± 0.54 |
| SCGCYKSSLVNLL | 0.328 ± 0.9 |
| LIHVCQYCVRPVNGGSVNLR | 0.264 ± 0.44 |
| TGATATYKFFIFFIL | 1.28 ± 0.22 |
| IISPYHLLLIKYRSSCSLLH | 0.985 ± 0.33 |
| LVMFSNLCSWFLLF | 0.966 ± 0.62 |
| SYHNLCGSESGQVVNNQDRM | -0.852 ± 0.51 |
| HVGRHTTTGHAGFCNCGNPN | 3.46 ± 0.17 |
| YNELKFRGYYNRCLECGFVR | 0.495 ± 0.91 |
| TCFMLKWIKQRLIDGSVKGR | 0.512 ± 1.2 |
| DDLPPRRNASFQWNKGFFRV | -0.448 ± 1.7 |
| NKMGFSRCSLQGDVKFF | -0.482 ± 0.51 |
| YFNVSWID | 1.02 ± 0.38 |
| DCQNYLSFVN | -1.29 ± 2.4 |
| LLLGW | -0.102 ± 0.32 |
| SMIPSNGTRLMLDSLTKYID | inactive |
| FWSYSMP | inactive |
| CSTALLDEKLLFHGTYIMRD | 1.08 ± 0.57 |
| SDIMGTVLSYFGINLVYAPC | inactive |
| EKTYSCHECFFIWPRSY | -1.09 ± 0.75 |
| FVWIWYCPIYHCEVLARSPR | -0.614 ± 0.83 |
| ARFCRGGRIVSLMRVLTQTR | -0.931 ± 1.3 |

| Substance | amyloid nucleation score |
| --- | --- |
| MNMICSFL | -1.39 ± 1.4 |
| SKFTYRV | -0.302 ± 0.38 |
| FCFLGRCEQHYYLEVHNGSE | -0.1 ± 0.49 |
| LSLRCCGFYLIVFFVIKFVS | -0.536 ± 0.29 |
| FVCSVFKSYCKSRVFFARAT | -0.025 ± 0.28 |
| MLVNSM | 0.497 ± 0.49 |
| LCCAKLRNAIKVVNQCTCGY | 4.4 ± 0.049 |
| RVNLKGWKRHSIRRSNMYRV | inactive |
| KCLTLSCILDVCKNIVEEMI | 0.047 ± 0.46 |
| CGITGMATVLNELPKLKHML | 0.202 ± 0.62 |
| VYPCACVFYSLGVGLQNEET | 6.27 ± 0.089 |
| VRMIFVQCWKCTESNFCERN | -0.174 ± 0.66 |
| CDVVVSSF | -0.117 ± 0.88 |
| SNFFVRFNTVTNFSMWDEYY | inactive |
| WDEFGVDEWSYWLLLWYVAR | 0.799 ± 0.97 |
| NFLLTRPAAHELC | inactive |
| FGRGHGLTGR | 0.25 ± 0.63 |
| WWVYRARFNCCHLYKVYLHC | 0.221 ± 0.88 |
| CICTRGMGSLSDCYELR | 0.689 ± 0.46 |
| TDNMWCSNVIFLECTN | 4.07 ± 0.12 |
| CFFPVSPFFIIRGKIQIFYL | -2.51 ± 2.7 |
| HIKVHKFVGENWETFSRADM | -0.026 ± 1.7 |
| LSAMWKSPMHRERRTWGM | 0.096 ± 0.42 |
| RYLDSLYKPRYYYQMVAIYG | 0.004 ± 0.41 |
| HGNCWSPTRAVRQYGVNAPM | 0.81 ± 0.36 |

| Substance | amyloid nucleation score |
| --- | --- |
| AESWCAGSKIIHSIGWSKDR | 0.589 ± 0.54 |
| IPPCWLTGLFNQYMNWTRS | -0.134 ± 0.31 |
| VMCVTIMSVFWNGLRNVEAM | 0.977 ± 0.18 |
| RCYCDNFVLGLVEL | 0.267 ± 0.29 |
| RVFQSNPCGT | 0.109 ± 1.4 |
| YFAEDSCERFAPDWVRLSTR | -0.425 ± 1.3 |
| FADNWLCKIRYSCGISLSKY | -0.739 ± 0.39 |
| YICEFMIRTMKQPWPSKGEG | 0.542 ± 0.32 |
| WARCTGIMFGS | 0.027 ± 0.97 |
| TGKNSC | 3.44 ± 0.099 |
| PRCSMRLLGYTPIYDGKS | -0.781 ± 1.1 |
| FFLVRMCKSRDVTVTVGGSH | 1.53 ± 0.14 |
| LTKISQLKRCDHKMRKSVSN | 0.517 ± 0.26 |
| LRAVTWLRYAYQGLFDVDV | -0.07 ± 0.56 |
| SDVLYIFTYMDKCQRSRLGV | 0.096 ± 0.26 |
| SLYNTLEVNDNKHRVNFLVA | 0.652 ± 0.58 |
| SLSMDIAVRSTTNRHANNIL | -0.494 ± 1.1 |
| SVSVNHSLPTLESDL | -0.682 ± 0.62 |
| WLHNIQRYTFFSKLRNQRRR | -0.442 ± 0.76 |
| HLILRTLWYKYLREKFSE | -0.286 ± 0.3 |
| LRCLVLYDEVANGRPEDSGG | 0.725 ± 1 |
| MICAQSVS | 0.991 ± 0.24 |
| ELVKFIVRADNDSWVGRASV | 0.267 ± 0.93 |
| QSFFHCVLYAIPHVRLS | -1.07 ± 1.1 |
| VDYMERGYYAYIMVGICI | inactive |

| Substance | amyloid nucleation score |
| --- | --- |
| GHSRRLYCGLEAGARCGFSR | -0.455 ± 1.5 |
| CWYLYRFSNTMMNRTTLPCG | -0.169 ± 0.53 |
| YILWHEIFQDCLTRDIIRLM | 0.248 ± 0.54 |
| YQYNATFFPSITRTNLETKG | 0.337 ± 0.49 |
| LSCYLYALVKGLGLRVGHIK | 0.177 ± 0.55 |
| SRVLRPS | -0.174 ± 0.4 |
| RRAYIYWNRTCFFLVILLFQ | 0.538 ± 0.84 |
| IKCPRLK | -0.466 ± 0.66 |
| GLGGYT | -0.155 ± 0.49 |
| DFLFNGLNITRCYFA | 0.193 ± 0.72 |
| SSTFCVAQYQSYWLCEVKWV | 0.086 ± 1.4 |
| IKRKSAESNGCSLYLYDSLK | -0.189 ± 0.43 |
| VSGSVFTNMIANILSTSRYV | -0.179 ± 1.6 |
| LCIIYVNYSGLLMTVNISSF | inactive |
| AIRMLSISCNFMVVIL | 0.837 ± 0.93 |
| LWSLDSDSCKVLGDSGCGFF | 0.133 ± 0.34 |
| STRICWGTCFDKLDMGGSR | 1.95 ± 0.34 |
| GFPRCVWFNSSVIQESSFFV | 0.571 ± 1.2 |
| GLTGLTLWARATRRRVGTLS | -0.153 ± 0.59 |
| IWLSFKDLCKVRICSS | 0.803 ± 0.59 |
| TETLADVLALERLPGCMKFI | 0.259 ± 0.68 |
| NNKSEVF | 1.46 ± 0.74 |
| CELPTRLF | -0.143 ± 0.33 |
| MKMNDYMGVRDWVHLIDVCS | inactive |
| SVTVM | 1.74 ± 0.49 |

| Substance | amyloid nucleation score |
| --- | --- |
| DLDSVGTVMGDQGDFS | -0.416 ± 0.55 |
| LTGGVDHC | 0.138 ± 0.32 |
| SVWVVCFVSRNVLVMFNSNF | inactive |
| TYFSISQLLGFFQSVGPYVF | 0.108 ± 0.56 |
| TSGSRVRRRWGMLVCRNRSR | -1.25 ± 2.4 |
| MLRMQKIGLFSLGMSC | -0.838 ± 0.47 |
| GLRVLFGLLGVCPCRDSQWG | inactive |
| FFGHAEDFLYMIRVHAGNNL | -0.379 ± 0.41 |
| NGMSSFRCLYMWARTFPVSN | -0.424 ± 0.99 |
| YGETGVINWRV | -0.217 ± 0.44 |
| GLSGSLSSVIYSSEVRSR | 0.036 ± 0.29 |
| ESVDGTSHAVGIMNGRLKID | 1.93 ± 0.1 |
| CIFPRCVYLYHSVWVDVVGC | -0.097 ± 0.61 |
| QEGCQTLTSTSLVGGRKESS | 0.872 ± 0.75 |
| VRVPCDIAIYMYGGLKALLS | -0.245 ± 1.3 |
| TSYTNAVFESNFA | -0.426 ± 0.3 |
| NWILSLAGFYRSSKVSSCTT | 0.41 ± 0.67 |
| NKRTLLVVY | -1.19 ± 0.81 |
| FVRVLTFPYPMNVFIRLSLA | inactive |
| TELGVSPIAKRRNSVLDHAL | -0.449 ± 1.1 |
| YGYMGGCHFPLYLMRIDSRD | 0.564 ± 0.75 |
| VFYVCFNAKLPLLGYFDLKV | inactive |
| VMDQLIV | inactive |
| LLIGYWLNLECLRYEMCHVL | -0.396 ± 0.66 |
| CGWRQKLVMVETVTGFSLWG | 1.41 ± 0.88 |
